One experiment has as its target T1, His-DBC1 (human, UniProt Q8N163 1-923).
T1 construct: Deleted in breast cancer 1 (DBC1, CCAR2), human; also called His-tagged DBC1; source: E. coli BL21, purified
In words: pull-down; GST-SIAH2 and His-DBC1 proteins from E. coli incubated in vitro overnight, GST beads for 2 hr at 4°C; blotted with an anti-DBC1 antibody. As to conditions: both partners purified.

For experiment [1], the target named is T2, N-terminal half of His-DBC1 (1–461) (human, UniProt Q8N163 1-461).
T2 construct: source: bacterially expressed (E. coli)
T2 sequence (Q8N163 1-461): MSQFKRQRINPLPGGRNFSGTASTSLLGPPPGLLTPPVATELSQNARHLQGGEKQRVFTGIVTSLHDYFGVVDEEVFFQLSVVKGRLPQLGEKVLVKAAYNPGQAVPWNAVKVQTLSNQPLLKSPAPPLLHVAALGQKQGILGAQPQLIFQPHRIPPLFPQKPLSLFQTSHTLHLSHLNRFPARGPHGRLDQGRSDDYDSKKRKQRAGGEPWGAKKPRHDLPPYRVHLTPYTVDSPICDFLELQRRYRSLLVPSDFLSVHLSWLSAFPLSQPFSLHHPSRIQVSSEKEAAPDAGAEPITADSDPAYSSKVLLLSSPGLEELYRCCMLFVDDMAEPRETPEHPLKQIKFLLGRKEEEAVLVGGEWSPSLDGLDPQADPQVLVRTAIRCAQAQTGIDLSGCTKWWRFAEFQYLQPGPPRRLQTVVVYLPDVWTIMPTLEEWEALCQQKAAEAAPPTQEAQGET
The description is as above. As to conditions: both partners purified.

T1 sequence (Q8N163 whole entry): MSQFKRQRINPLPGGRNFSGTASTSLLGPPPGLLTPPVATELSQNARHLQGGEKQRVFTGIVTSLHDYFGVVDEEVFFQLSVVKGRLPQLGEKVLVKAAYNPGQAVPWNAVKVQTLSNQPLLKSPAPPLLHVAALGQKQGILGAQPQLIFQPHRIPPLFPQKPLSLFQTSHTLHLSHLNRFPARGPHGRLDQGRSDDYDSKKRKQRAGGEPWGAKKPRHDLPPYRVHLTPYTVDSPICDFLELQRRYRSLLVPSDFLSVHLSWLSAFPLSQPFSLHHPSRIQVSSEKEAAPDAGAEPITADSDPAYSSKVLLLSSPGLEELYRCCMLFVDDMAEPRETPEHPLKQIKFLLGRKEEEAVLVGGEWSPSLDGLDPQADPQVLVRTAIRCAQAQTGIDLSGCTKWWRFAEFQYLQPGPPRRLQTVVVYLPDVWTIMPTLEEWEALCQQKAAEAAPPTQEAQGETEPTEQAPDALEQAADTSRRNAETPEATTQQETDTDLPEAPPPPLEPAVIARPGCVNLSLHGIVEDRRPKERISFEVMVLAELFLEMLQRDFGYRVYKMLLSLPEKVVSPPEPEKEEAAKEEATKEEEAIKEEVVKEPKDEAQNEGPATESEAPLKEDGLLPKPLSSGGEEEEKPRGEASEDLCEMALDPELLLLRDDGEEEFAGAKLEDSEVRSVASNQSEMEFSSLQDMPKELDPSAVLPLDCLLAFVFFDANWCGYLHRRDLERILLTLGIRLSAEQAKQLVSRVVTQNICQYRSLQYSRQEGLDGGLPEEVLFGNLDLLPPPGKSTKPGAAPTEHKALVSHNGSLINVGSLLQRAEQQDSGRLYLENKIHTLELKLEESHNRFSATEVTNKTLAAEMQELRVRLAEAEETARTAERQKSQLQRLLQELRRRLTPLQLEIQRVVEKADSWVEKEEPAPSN

B1: GST-SIAH2 (enzyme, human, UniProt O43255 1-324, looked up)
chain: MSRPSSTGPSANKPCSKQPPPQPQHTPSPAAPPAAATISAAGPGSSAVPAAAAVISGPGGGGGAGPVSPQHHELTSLFECPVCFDYVLPPILQCQAGHLVCNQCRQKLSCCPTCRGALTPSIRNLAMEKVASAVLFPCKYATTGCSLTLHHTEKPEHEDICEYRPYSCPCPGASCKWQGSLEAVMSHLMHAHKSITTLQGEDIVFLATDINLPGAVDWVMMQSCFGHHFMLVLEKQEKYEGHQQFFAIVLLIGTRKQAENFAYRLELNGNRRRLTWEATPRSIHDGVAAAIMNSDCLVFDTAIAHLFADNGNLGINVTISTCCP
notes: E3 ubiquitin ligase SIAH2, human, wild type; also called GST-tagged SIAH2; purified glutathione S-transferase (GST) SIAH2; source: E. coli BL21, purified
Turning to B1, the binding result (with His-DBC1; in experiment [1]) was “binds” in each case.
